Laboratory results: patent US20190092852A1 (Genentech, published 2019)

T1: cyno IL-33 N-His (cynomolgus monkey)
T1 chain: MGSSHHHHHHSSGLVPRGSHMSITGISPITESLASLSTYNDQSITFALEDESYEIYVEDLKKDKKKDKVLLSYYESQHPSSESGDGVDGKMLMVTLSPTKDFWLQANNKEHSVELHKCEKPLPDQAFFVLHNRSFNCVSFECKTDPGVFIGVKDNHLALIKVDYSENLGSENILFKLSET


How the values were obtained:
cyno IL-33 N-His [1] = molecular target: T1, cyno IL-33 N-His; assay: SPR Biacore T200, 25 C
Description: (§1) The binding kinetics of the anti-IL-33 antibody 10C12.38.H6.87Y.58I IgG4 and each anti-IL-33 antibody listed in Table 5 (RG1-RG20) to IL-33 were measured using surface plasmon resonance (SPR) on a BIACORE® T200 instrument (GE Healthcare). Anti-human Fc or anti-murine Fc (GE Healthcare, #BR-1008-39 or BR-1008-38, respectively) was immobilized on a CM5 sensor chip via amine-based coupling according to the manufacturer's protocol. Surfaces were used to capture monoclonal human IgG4 and monoclonal murine IgGs for kinetic studies. Antibody binding was measured to human IL-33 (R&D systems, #3625-IL-010/CF) and cyno IL-33 N-His (SEQ ID NO: 317) (Genentech, Inc.). A three-fold concentration series of cytokine with a range of 3.7 to 100 nM was used for the experiments. Sensograms for binding of IL-33 were recorded using an injection time of 4 min with a flow rate of 30 μl/minute with a running buffer of 0.01 M N-(2-Acetamido)iminodiacetic acid (ADA) pH 7.4, 0.15 M NaCl, 3 mM EDTA, and 0.05% TWEEN®-20. After injection, disassociation of the ligand from the antibody was monitored for 10 min in running buffer. The surface was regenerated in between cycles with an injection of 3 M magnesium chloride or Glycine-HCl pH 1.7. All binding experiments were performed at a temperature of 25′C and 37° C. After subtraction of a blank which contained running buffer only, sensograms observed for IL-33 binding to anti-IL-33 antibodies were analyzed using a 1:1 Langmuir binding model with software supplied by the manufacturer to calculate the kinetics and binding constants, including the dissociation constant (KD). Dissociative half-lives (t_{1/2}) were calculated from the kinetic rate constants. KD (M)=koff/kₒₙ and t_{1/2} (min)=ln(2)/(60*koff). […] In Tables 6-9, *IC indicates the result is inconclusive due to weak capture of antibody was observed, leading to poor binding data.

cyno IL-33 N-His [2] = molecular target: T1, cyno IL-33 N-His; assay: SPR Biacore T200, 37 C
Description: as §1

| Kd (cyno IL-33 N-His [1]) | koff (cyno IL-33 N-His [1]) | kon (cyno IL-33 N-His [1]) | t1/2 (cyno IL-33 N-His [1]) | Kd (cyno IL-33 N-His [2]) | koff (cyno IL-33 N-His [2]) | kon (cyno IL-33 N-His [2]) | t1/2 (cyno IL-33 N-His [2]) | Binder |
| --- | --- | --- | --- | --- | --- | --- | --- | --- |
| 38 nM | 0.00625 s⁻¹ | 164000 M⁻¹ s⁻¹ | 2 min | 47.4 nM | 0.0139 s⁻¹ | 293000 M⁻¹ s⁻¹ | 1 min | H4H9666P (antibody, V domains shown) VH: QVQLVQSGAEVKKPGASVKVSCKASGYTFTSYGISWVRQAPGQGLEWMGWIRAYNGYTNYAQKFQGRVTMTTDTSTNTAYMELRTLNSDDTAVYYCARDRYSGSFHGNFDYWGQGTLVTVSS VL: DIQMTQSPSSVSASVGDRVTITCRASQGIFSWLAWYQQKPGKAPKVLIYAASNLESGVPSRFSGSGSGTDFTLTISSLQPEDFATYYCQQANSLPLTFGGGTKVEIK |
| 3.15 nM | 0.00248 s⁻¹ | 787000 M⁻¹ s⁻¹ | 5 min | 6.93 nM | 0.0111 s⁻¹ | 1.6e+06 M⁻¹ s⁻¹ | 1 min | H4H9676P (antibody, V domains shown) VH: EVQLVESGGGLVQPGGSLRLSCSASGFTFSSYAMNWVRQAPGKGLEWVTAISGSGGGTYYADSVKGRFTISRDNSKNSLFLQLNSLRAEDTAVYYCAKQTYTSSWYGGFDIWGQGTMVTVSS VL: DIQMTQSPSSVSASVGDRVTITCRASQGFSSWLAWYQQIPGKAPKLLIYAASRLQSGVPSRFRGSGSGTDFTLTISSLQPEDFATYYCQQANSFPLTFGGGTKVEIK |
| 5.74 nM | 0.0019 s⁻¹ | 331000 M⁻¹ s⁻¹ | 6 min | 13 nM | 0.00757 s⁻¹ | 584000 M⁻¹ s⁻¹ | 2 min | H4H9672P (antibody, V domains shown) VH: EVQLVESGGGLVQPGGSLRLSCAASGFTLRSYVMYWVRQGPGKGLEGVSGISGSSGGTYYTDSVKGRFTISRDNSKNTLFLQMNSLRAEDTAVYFCARSVYSTTWYGGFQHWGQGTLVTVSS VL: DIQMTQSPSSVSVSVGDRVTITCRASQVISSWLAWYQLKPGKAPKLLIYAASSLQSGVPSRFSGSGSGTDFTLTISGLQPEDFAVYYCQQTNSFPLTFGGGTKVEIK |
